± gives the uncertainty stated by the source.
Test: self-splicing fitness, log relative to wild type (ln ratio); higher = more splicing; Tetrahymena group I intron in knt gene, E. coli kanamycin selection, DiMSum; sequences stand for … in CUCUCU…GGAGGGAAAAGUUAUCAGGCAUGCACCUGGUAGCUAGUCUUUAAACCAAUAGAUUGCAUCGGUUUAAAAGGCAAGACCGUCAAAUUGCGGGAAAGGGGUCAACAGCCGUUCAGUACCAAGUCUCAGGGGAAACUUUGAGAUGGCCUUGCAAAGGGUAUGGUAAUAAGCUGACGGACAUGGUCCUAACCACGCAGCCAAGUCCUAAGUCAACAGAUCUUCUGUUGAUAUGGAUGCAGUUCACAGACUAAAUGUCGGUCGGGGAAGAUGUAUUCUUCUCAUAAGAUAUAGUCGGACCUCUCCUUAAUGGGAGCUAGCGGAUGAAGUGAUGCAACACUGGAGCCGCUGGGAACUAAUUUGUAUGCGAAAGUAUAUUGAUUAGUUUUGGAGUACUCGUGGUCG
Outline: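 Six replicate transformations of E. coli BL21(DE3) with a pET-22b(+) library were grown overnight at 37°C or 30°C. The library randomised all eight P1ex-region intron nucleotides, the intron lying in the knt kanamycin-resistance gene, and plates were LB agar with or without 25 μg/mL kanamycin plus 100 μg/mL carbenicillin, 50 μM IPTG and 0.2% rhamnose. Pooled colonies were amplicon-sequenced on an Illumina HiSeq 2500, and fitness is the DiMSum error-weighted combination of wild-type-normalised replicate fold changes, kanamycin versus none.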

Row | Sequence | self-splicing fitness (ln) (30 °C) | self-splicing fitness (ln) (37 °C)
1 | ACAAAGCAAUAUUACGCCAA | -2.34 ± 0.24 | -1.86 ± 0.18
2 | ACAAAGCAAUAUUACGCCGC | -3.43 ± 0.31 | -1.52 ± 0.28
3 | ACAAAGCAAUAUUACGCGUG | -1.5 ± 0.043 | -0.274 ± 0.057
4 | ACAAAGCAAUAUUACGGACC | -1.02 ± 0.1 | -1.5 ± 0.15
5 | ACAAAGCAAUAUUACGGACU | -0.0658 ± 0.051 | 0.338 ± 0.079
6 | ACAAAGCAAUAUUACGGCCG | -0.257 ± 0.09 | 0.0921 ± 0.14
7 | ACAAAGCAAUAUUACGGCCU | -0.338 ± 0.071 | 0.0409 ± 0.1
8 | ACAAAGCAAUAUUACGGCGG | -0.226 ± 0.08 | -0.154 ± 0.092
9 | ACAAAGCAAUAUUACGGGAU | -1.19 ± 0.058 | -0.492 ± 0.076
10 | ACAAAGCAAUAUUACGGGGG | -2.81 ± 0.13 | -2.19 ± 0.16
11 | ACAAAGCAAUAUUACGGGGU | -3.15 ± 0.16 | -2.59 ± 0.18
12 | ACAAAGCAAUAUUACGUAAG | -1.19 ± 0.056 | -0.79 ± 0.069
13 | ACAAAGCAAUAUUACGUAGA | -3.68 ± 0.16 | -1.66 ± 0.15
14 | ACAAAGCAAUAUUACGUCCG | -0.802 ± 0.049 | -0.466 ± 0.063
15 | ACAAAGCAAUAUUACGUUGC | -3.26 ± 0.12 | -2.57 ± 0.16
16 | ACAAAGCAAUAUUACGUUUC | -4.84 ± 0.24 | -2.49 ± 0.16
17 | ACAAAGCAAUAUUACGUUUU | -3.53 ± 0.14 | -2.95 ± 0.16
18 | ACACAGCAAUAUUACGAACG | -0.869 ± 0.048 | -0.185 ± 0.068
19 | ACACAGCAAUAUUACGAAUU | -3.01 ± 0.084 | -2.02 ± 0.1
20 | ACACAGCAAUAUUACGAGCU | -0.901 ± 0.077 | -0.406 ± 0.085
21 | ACACAGCAAUAUUACGCACC | -0.476 ± 0.09 | -0.151 ± 0.11
22 | ACACAGCAAUAUUACGCAGG | -2.43 ± 0.093 | -1.82 ± 0.1
23 | ACACAGCAAUAUUACGGAAC | -4.07 ± 0.17 | -2.49 ± 0.14
24 | ACACAGCAAUAUUACGGAUU | -2.18 ± 0.096 | -1.45 ± 0.12

From the supplement of paper PMC7877785
